The results in this text go back to patent US20220119490A1 (Genentech, published 2022).

For experiment [1], the target named is T1, PTPRD ΔG61 ΔE106 variant extracellular domain (human, UniProt P23468 21-1265).
T1 construct: extracellular domain; meaning of the deletion notation not explained; also called IG1 mutant
T1 sequence (looked up): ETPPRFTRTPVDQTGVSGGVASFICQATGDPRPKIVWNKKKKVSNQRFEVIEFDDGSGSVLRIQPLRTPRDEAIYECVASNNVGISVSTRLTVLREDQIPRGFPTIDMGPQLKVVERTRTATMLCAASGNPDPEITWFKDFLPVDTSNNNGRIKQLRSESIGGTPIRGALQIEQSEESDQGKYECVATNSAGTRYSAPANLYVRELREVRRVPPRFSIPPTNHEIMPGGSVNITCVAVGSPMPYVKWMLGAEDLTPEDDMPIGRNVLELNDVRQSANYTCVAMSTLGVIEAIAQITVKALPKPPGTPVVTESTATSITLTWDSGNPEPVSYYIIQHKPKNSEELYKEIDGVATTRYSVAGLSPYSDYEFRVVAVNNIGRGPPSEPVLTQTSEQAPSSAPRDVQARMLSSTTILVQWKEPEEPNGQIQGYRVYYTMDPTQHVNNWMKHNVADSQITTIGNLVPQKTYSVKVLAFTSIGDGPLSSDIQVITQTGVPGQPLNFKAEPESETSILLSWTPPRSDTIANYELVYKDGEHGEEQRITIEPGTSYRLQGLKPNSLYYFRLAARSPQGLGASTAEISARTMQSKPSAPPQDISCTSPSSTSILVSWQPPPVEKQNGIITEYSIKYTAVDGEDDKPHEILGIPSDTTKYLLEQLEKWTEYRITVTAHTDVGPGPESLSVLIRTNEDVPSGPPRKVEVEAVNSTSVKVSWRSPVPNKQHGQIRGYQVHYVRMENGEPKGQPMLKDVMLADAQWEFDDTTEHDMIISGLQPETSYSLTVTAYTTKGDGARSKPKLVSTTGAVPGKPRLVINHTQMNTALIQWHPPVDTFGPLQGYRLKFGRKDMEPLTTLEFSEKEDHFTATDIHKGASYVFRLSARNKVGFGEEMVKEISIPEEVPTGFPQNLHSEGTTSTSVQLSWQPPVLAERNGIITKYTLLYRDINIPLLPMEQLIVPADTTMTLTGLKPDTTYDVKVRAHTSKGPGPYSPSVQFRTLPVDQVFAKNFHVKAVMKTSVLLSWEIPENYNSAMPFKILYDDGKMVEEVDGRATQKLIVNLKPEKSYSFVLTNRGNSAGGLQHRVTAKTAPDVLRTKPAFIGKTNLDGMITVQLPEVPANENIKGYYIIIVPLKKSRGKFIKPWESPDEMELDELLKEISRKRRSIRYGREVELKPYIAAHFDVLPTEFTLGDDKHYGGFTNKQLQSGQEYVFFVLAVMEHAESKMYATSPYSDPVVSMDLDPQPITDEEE
The experiment in a line: extracellular interaction screen: pentameric PTPRD variant ECD on ECD-Fc prey (FIG. 5L).

The target in experiment [2] is T2, PTPRD P249L variant extracellular domain (human, UniProt P23468 21-1265).
T2 construct: extracellular domain; also called IG3 mutant
T2 sequence (looked up): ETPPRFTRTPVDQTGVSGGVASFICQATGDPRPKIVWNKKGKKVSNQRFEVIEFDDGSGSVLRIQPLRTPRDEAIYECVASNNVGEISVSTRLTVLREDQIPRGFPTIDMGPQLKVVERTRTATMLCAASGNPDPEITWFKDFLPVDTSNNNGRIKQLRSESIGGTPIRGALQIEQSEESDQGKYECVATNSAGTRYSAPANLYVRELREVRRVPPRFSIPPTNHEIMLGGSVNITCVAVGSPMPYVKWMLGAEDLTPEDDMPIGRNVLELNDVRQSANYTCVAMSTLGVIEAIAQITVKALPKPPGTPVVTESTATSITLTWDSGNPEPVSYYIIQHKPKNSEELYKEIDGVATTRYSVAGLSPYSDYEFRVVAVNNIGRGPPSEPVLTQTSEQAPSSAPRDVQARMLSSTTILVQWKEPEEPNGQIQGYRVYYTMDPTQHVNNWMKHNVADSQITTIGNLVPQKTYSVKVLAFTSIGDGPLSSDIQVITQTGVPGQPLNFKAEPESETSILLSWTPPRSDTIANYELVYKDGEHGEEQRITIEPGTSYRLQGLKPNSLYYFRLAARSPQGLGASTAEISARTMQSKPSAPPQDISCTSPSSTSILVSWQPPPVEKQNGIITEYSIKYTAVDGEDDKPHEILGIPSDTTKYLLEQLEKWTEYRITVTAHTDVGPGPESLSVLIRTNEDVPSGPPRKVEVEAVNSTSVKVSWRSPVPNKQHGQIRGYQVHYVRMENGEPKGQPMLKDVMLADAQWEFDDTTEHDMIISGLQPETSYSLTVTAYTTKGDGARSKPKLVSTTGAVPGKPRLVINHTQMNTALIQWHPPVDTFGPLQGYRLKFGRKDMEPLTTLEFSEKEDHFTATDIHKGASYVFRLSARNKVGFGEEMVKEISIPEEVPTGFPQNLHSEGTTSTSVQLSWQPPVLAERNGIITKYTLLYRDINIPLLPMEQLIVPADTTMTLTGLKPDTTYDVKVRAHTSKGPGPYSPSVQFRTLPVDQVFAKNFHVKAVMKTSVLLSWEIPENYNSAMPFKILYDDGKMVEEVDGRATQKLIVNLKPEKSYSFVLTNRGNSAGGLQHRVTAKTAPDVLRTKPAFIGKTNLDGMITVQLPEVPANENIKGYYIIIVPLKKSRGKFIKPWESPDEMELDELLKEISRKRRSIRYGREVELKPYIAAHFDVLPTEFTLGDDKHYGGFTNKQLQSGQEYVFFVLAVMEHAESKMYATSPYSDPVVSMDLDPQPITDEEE
The description is as above.

B1: LRRC4B extracellular domain (receptor, human, UniProt Q9NT99 36-576, looked up)
chain: AGGGGVAVTSAAGGGSPPATSCPVACSCSNQASRVICTRRDLAEVPASIPVNTRYLNLQENGIQVIRTDTFKHLRHLEILQLSKNLVRKIEVGAFNGLPSLNTLELFDNRLTTVPTQAFEYLSKLRELWLRNNPIESIPSYAFNRVPSLRRLDLGELKRLEYISEAAFEGLVNLRYLNLGMCNLKDIPNLTALVRLEELELSGNRLDLIRPGSFQGLTSLRKLWLMHAQVATIERNAFDDLKSLEELNLSHNNLMSLPHDLFTPLHRLERVHLNHNPWHCNCDVLWLSWWLKETVPSNTTCCARCHAPAGLKGRYIGELDQSHFTCYAPVIVEPPTDLNVTEGMAAELKCRTGTSMTSVNWLTPNGTLMTHGSYRVRISVLHDGTLNFTNVTVQDTGQYTCMVTNSAGNTTASATLNVSAVDPVAAGGTGSGGGGPGGSGGVGGGSGGYTYFTTVTVETLETQPGEEALQPRGTEKEPPGPTTDGVWGGGRPGDAAGPASSSTTAPAPRSSRPTEKAFTVPITDVTENALKDLDDVMKTTK
notes: extracellular domain; ECD-Fc prey; also called NGL-3; netrin-G ligand-3
Regarding B1, the binding result in experiment [1] and in experiment [2] was “no binding” in each case.
